The assay concerns the target T1, human ferroportin (SLC40A1) fused in frame with GFP, stably expressed in HEK293 cells (human, UniProt Q9NP59 1-571).
T1 sequence (looked up): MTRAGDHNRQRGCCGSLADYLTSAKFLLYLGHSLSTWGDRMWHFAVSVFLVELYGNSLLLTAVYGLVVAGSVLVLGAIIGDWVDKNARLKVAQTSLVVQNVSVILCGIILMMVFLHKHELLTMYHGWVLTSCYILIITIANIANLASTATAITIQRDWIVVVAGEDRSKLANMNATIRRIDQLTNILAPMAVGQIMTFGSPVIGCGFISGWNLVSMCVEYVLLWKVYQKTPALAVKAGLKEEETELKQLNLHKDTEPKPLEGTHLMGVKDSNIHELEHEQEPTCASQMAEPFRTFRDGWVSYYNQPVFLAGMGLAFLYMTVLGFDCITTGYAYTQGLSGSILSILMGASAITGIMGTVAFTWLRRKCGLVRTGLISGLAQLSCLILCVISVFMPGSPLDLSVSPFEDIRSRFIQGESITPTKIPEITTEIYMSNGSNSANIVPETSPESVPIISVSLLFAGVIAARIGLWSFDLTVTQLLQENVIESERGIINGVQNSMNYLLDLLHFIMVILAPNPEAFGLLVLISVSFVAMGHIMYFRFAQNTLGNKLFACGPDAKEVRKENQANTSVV
Put plainly: cell-based or functional assay.

Numbered stars: 1 amine (or outer) side, 2 acyl side, 3 side chain; on linkers, the order of the positions; unused ones are H or OH. Square brackets hold non-standard residues; d marks the D form. Primed or numbered codes have the meaning given here. Ends that are not written are not given here. * marks the point of attachment. Ida = iminodiacetic acid, O=C(CN(CC(=O)[*:3])[*:1])[*:2]; PEG8′ = PEG8 conjugated to the Lys side chain; Palmitoyl = CCCCCCCCCCCCCCCC(=O)*; β3hP = O=C(O)C[C@@H]1CCCN1; Isovaleryl = CC(C)CC(=O)*; PEG11′ = not defined here; Isobutyryl = CC(C)C(=O)*; Octanoyl = CCCCCCCC(=O)*

Take H-HFPCIIFGPRSKGWVCM-NH2 (cysteine pairing not given here) [Compound 133]: the “Potency EC50 (nM)” value is > 1000 nM.

Consider H-THFPCIIFGPRSKGWVCM-NH2 (cysteine pairing not given here) [Compound 132], for which the “Potency EC50 (nM)” value was > 1000 nM.

As to H-DTHFPCIKFGPRSKGWVCM-NH2 (cysteine pairing not given here) [Compound 136], the “Potency EC50” value turned out to be 669 nM.

B1: Compound 103 (peptide)
peptide: H-EDTHFPCIIFGPRSKGWVCK-NH2
modifications: not fully specified (bridges); printed as Hy-EDTHFPCIIFGPRSKGWVCK-NH2; cysteine pairing not given here
Regarding B1, the “Potency EC50 (nM)” value is > 1000 nM.

B2: Compound 102 (peptide)
peptide: H-DTHFPCIKFGPRSKGWVCK-NH2
modifications: not fully specified (bridges); printed as Hy-DTHFPCIKFGPRSKGWVCK-NH2; cysteine pairing not given here
In the case of B2, the “Potency EC50 (nM)” value was > 1000 nM.

In the case of Isovaleryl-DTHFPCIIFEPRSKGWVCKKKK-NH2 (cysteine pairing not given here) [Compound 144], the “Potency EC50” value came out at 15 nM.

As to DTHFPCIKFKPRSKGWVCK (N-terminal isovaleric acid; PEG8 on side chain of Lys 10; C-terminal amide) [Compound 150], the “Potency EC50” value amounted to 7 nM.

Isovaleryl-DTHFPCIKFGPKSKGWVCK-NH2 (not fully specified (bridges); cysteine pairing not given here) [Compound 112]: the “Potency EC50” value was found to be 15 nM.

Isovaleryl-DTHFPCIIFGPRSKGWVCKK-NH2 (cysteine pairing not given here) [Compound 145]: the “Potency EC50” value turned out to be 9 nM.

In the case of H-DTHFPCISFGPRSKGWVCM-NH2 (cysteine pairing not given here) [Compound 135], the “Potency EC50” value turned out to be 545 nM.

With H-DTHFPCIRFGPRSRGWRCK-NH2 (cysteine pairing not given here) [Compound 82], the “Potency EC50 (nM)” value was > 1000 nM.

With Isovaleryl-DTHFPCIK(PEG8′)FGPRSKGWVCK-NH2 (cysteine pairing not given here) [Compound 149], the “Potency EC50” value came to 9 nM.

For Isovaleryl-DTHFSCIIFGPRSKGWVCK-NH2 (not fully specified (bridges); cysteine pairing not given here) [Compound 107], the “Potency EC50” value stood at 50 nM.

For the molecule Isovaleryl-DTHFKCIEFGPRSKGWVCK-NH2 (cysteine pairing not given here) [Compound 140], the “Potency EC50 (nM)” value was > 1000 nM.

For H-EDTHFPCIIFGPRSKGWVCM-NH2 (cysteine pairing not given here) [Compound 137], the “Potency EC50” value amounted to 873 nM.

As for Isovaleryl-DTKFPCIIFGPRSKGWVCK-NH2 (cysteine pairing not given here) [Compound 147], the “Potency EC50” value came out at 20 nM.

B3: Compound 84 (peptide)
peptide: H-DTHFPCIIFGPRSRGVCK-NH2
modifications: not fully specified (bridges); printed as Hy-DTHFPCIIFGPRSRGVCK-NH2; cysteine pairing not given here
B3: the “Potency EC50 (nM)” value was > 1000 nM.

{Isobutyryl-PEG11′}-DTHFPCIIFGPRSRGWVCK-NH2 (not fully specified (bridges); cysteine pairing not given here) [Compound 109]: the “Potency EC50 (nM)” value is > 1000 nM.

B4: Compound 101 (peptide)
peptide: H-DTHFPCISFGPRSKGWVCK-NH2
modifications: not fully specified (bridges); printed as Hy-DTHFPCISFGPRSKGWVCK-NH2; cysteine pairing not given here
On to B4, for which the “Potency EC50 (nM)” value is > 1000 nM.

In the case of Isovaleryl-DTHFPCIIFEPRSKGWVCK-NH2 (not fully specified (bridges); cysteine pairing not given here) [Compound 105], the “Potency EC50” value came to 10 nM.

B5: Compound 86 (peptide)
peptide: H-DTHFPCIIFGPRSKGWVCK-NH2
modifications: not fully specified (bridges); printed as Hy-DTHFPCIIFGPRSKGWVCK-NH2; cysteine pairing not given here
As to B5, the “Potency EC50 (nM)” value is > 1000 nM.

B6: Compound 87 (peptide)
peptide: H-DTHFPCIIFGPRARGWVCK-NH2
modifications: not fully specified (bridges); printed as Hy-DTHFPCIIFGPRARGWVCK-NH2; cysteine pairing not given here
For B6, the “Potency EC50 (nM)” value is > 1000 nM.

B7: Compound 110 (peptide)
peptide: [Ida]THFPCIIFGPRSRGWVCK-NH2
modifications: not fully specified (bridges); printed as [Ida]-THFPCIIFGPRSRGWVCK-NH2; cysteine pairing not given here
For B7, the “Potency EC50” value was > 300 nM.

For the molecule H-DTHFPCIIFGPRSRGWRCK-NH2 (cysteine pairing not given here) [Compound 80], the “Potency EC50 (nM)” value is > 1000 nM.

Consider Isovaleryl-DTHFPCIIFEPRSKGWVCK-NH2 (cysteine pairing not given here) [Compound 142], for which the “Potency EC50” value was determined as 9 nM.

B8: Compound 89 (peptide)
peptide: {Palmitoyl-PEG11′}-DTHFPCIIFGPRSRGWVCK-NH2
modifications: not fully specified (bridges); printed as Palm-PEG11-DTHFPCIIFGPRSRGWVCK-NH2; cysteine pairing not given here
As for B8, the “Potency EC50 (nM)” value was > 1000 nM.

Consider H-DTHFPCIRFGPRSRGWVCK-NH2 (cysteine pairing not given here) [Compound 81], for which the “Potency EC50 (nM)” value was > 1000 nM.

In the case of H-DTHFPCIIFGPRSRGWVCK-NH2 (cysteine pairing not given here) [Compound 83], the “Potency EC50 (nM)” value was > 1000 nM.

For the molecule Isovaleryl-DTHFPCIIFGPRSKGWCK-NH2 (not fully specified (bridges); cysteine pairing not given here) [Compound 113], the “Potency EC50” value turned out to be 15 nM.

As to Octanoyl-DTHFPCIIFGPRSRGWVCK-NH2 (not fully specified (bridges); cysteine pairing not given here) [Compound 88], the “Potency EC50 (nM)” value was > 1000 nM.

For the molecule {Octanoic acid-PEG11′}-DTHFPCIIFGPRSRGWVCK-NH2 (not fully specified (bridges); cysteine pairing not given here) [Compound 108], the “Potency EC50 (nM)” value is > 1000 nM.

Turning to Isovaleryl-HFPCIIFGPRSKGWVCM-NH2 (cysteine pairing not given here) [Compound 134], the “Potency EC50 (nM)” value was > 1000 nM.

In the case of Isovaleryl-DTHFPCIIFGPRSKGVC-NH2 (not fully specified (bridges); cysteine pairing not given here) [Compound 114], the “Potency EC50” value was 18 nM.

B9: Compound 85 (peptide)
peptide: H-DTHFPCIYFGPRSKGWVCK-NH2
modifications: not fully specified (bridges); printed as Hy-DTHFPCIYFGPRSKGWVCK-NH2; cysteine pairing not given here
For B9, the “Potency EC50” value came to 705 nM.

B10: Compound 79 (peptide)
peptide: H-DTHF[β3hP]CIIFGPRSRGWVCK-NH2
modifications: not fully specified (bridges); printed as Hy-DTHF[bh-Pro]-CIIFGPRSRGWVCK-NH2; cysteine pairing not given here
Take B10: the “Potency EC50 (nM)” value was > 1000 nM.

The values above are taken from patent US20250340608A1 (PROTAGONIST THERAPEUTICS, published 2025).
